The Kd is the free concentration of one partner at which half of the binding sites on the other are occupied at equilibrium, for simple one-to-one binding.

Several values for one entry are separate records, joined by “and”; a condition that tells them apart may be missing. Equal values may be shown once.

Assay [1] addresses DREB2A 243-272 (Arabidopsis thaliana) (UniProt O82132). As to the kind of experiment: ITC. The following applies: cited from earlier work.
Assay [2] deals with ANAC013 254-274 (Arabidopsis thaliana) (UniProt F4IED2). As to the kind of experiment: ITC. The following applies: cited from earlier work.
Assay [3] concerns the target T1, ANAC013 254-274 (Arabidopsis thaliana, UniProt F4IED2).
T1 chain: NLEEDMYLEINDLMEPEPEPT
As to the kind of experiment: ITC. A general note: ITC needs no label: the signal is the heat of the interaction.

Assay [4] deals with T2, DREB2A 243-272 (Arabidopsis thaliana, UniProt O82132).
T2 chain: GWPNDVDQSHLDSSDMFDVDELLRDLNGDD
As to the kind of experiment: ITC.

Assay [5] deals with T3, DREB2A (Arabidopsis thaliana (Mouse-ear cress), UniProt O82132).
T3 chain: T2 chain
As to the kind of experiment: ITC 25 C.

Assay [6] addresses T4, ANAC013 (Arabidopsis thaliana (Mouse-ear cress), UniProt F4IED2).
T4 chain: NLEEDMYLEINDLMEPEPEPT
As to the kind of experiment: ITC 25 C.

For RCD1 499-572 (from UniProt Q8RY59), the Kd is 16 nM in assay [1] and 9 nM in assay [2].

Take RCD1 RST (from UniProt Q8RY59): the Kd in assay [1] was 16 nM.

B1: AtTAF4 180-254 (protein)
chain: NVNPINRNPKQVPFAALLPTLMNQLDKDRALQLRTLYARLKKNEIPKEGFTRHMKDIVGDQMLRMAVSKLQQVNY
For B1, the Kd in assay [3] was 1080 nM; in assay [4], 740 nM and 1050 nM.

B2: HsTAF4_TAFH (protein)
chain: TSSAATETMENVKKCKNFLSTLIKLASSGKQSTETAANVKELVQNLLDGKIEAEDFTSRLYRELNSSPQPYLVPFLKRSLPALRQLTPDSAAFIQQS
Regarding B2, in assay [5], the Kd is 110 nM.

B3: AtRCD1_RST (protein)
chain: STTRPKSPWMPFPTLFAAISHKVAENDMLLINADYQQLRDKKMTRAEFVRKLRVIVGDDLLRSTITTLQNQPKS
For B3, the Kd was found to be 16 nM in assay [5] and 9 nM in assay [6].

B4: AtTAF4_RST (protein)
chain: NPINRNPKQVPFAALLPTLMNQLDKDRALQLRTLYARLKKNEIPKEGFTRHMKDIVGDQMLRMAVSKLQQVNY
Regarding B4, the values for the Kd in assay [5] and in assay [6] were 740 nM and 1080 nM, respectively.

The values are drawn from publication PMC9127584 (2022).
